Laboratory results reported in the Human Domainome abundance scans (Beltran et al. 2025).
± gives the uncertainty stated by the source.

B1: RAS guanyl-releasing protein 1, residues 539 to 593; numbered along this chain, O95267 (parent)
chain: GFPHNFQETTYLKPTFCDNCAGFLWGVIKQGYRCKDCGMNCHKQCKDLVVFECKK

Variants of: B1
Assay: abundance fitness (aPCA) (normalised: wild type 0, dead -1); higher = more abundant; growth selection in yeast, the domain comes from the species named
Details: Homo sapiens

First: T9L
Second: T9M
The abundance fitness of the first is lower: -0.184 ± 0.076 for the first, 0.034 ± 0.076 for the second.

T9W and T9C are within error of each other in abundance fitness: -0.136 ± 0.1 for the first, -0.035 ± 0.12 for the second.

T9Y and T9N are within error of each other in abundance fitness: -0.013 ± 0.13 for the first, -0.051 ± 0.14 for the second.

Compared with T9H, T9K is lower in abundance fitness: -0.021 ± 0.12 for the first, -0.473 ± 0.15 for the second.

Going from T9G to T9R, the abundance fitness rises from -0.273 ± 0.098 to -0.068 ± 0.089.

T9Q and T9F are within error of each other in abundance fitness: -0.056 ± 0.062 for the first, -0.216 ± 0.19 for the second.

First: T9D
Second: T9E
The abundance fitness of the first is higher: -0.131 ± 0.11 for the first, -0.376 ± 0.12 for the second.

First: T9S
Second: T9I
The abundance fitness of the first is higher: 0.028 ± 0.067 for the first, -0.203 ± 0.13 for the second.

Going from T9P to F2N, the abundance fitness rises from -0.768 ± 0.22 to 0.214 ± 0.093.

Compared with F2Y, F2Q is lower in abundance fitness: -0.019 ± 0.066 for the first, -0.282 ± 0.12 for the second.

First: F2C
Second: F2W
The abundance fitness of the first is higher: -0.214 ± 0.11 for the first, -0.523 ± 0.16 for the second.

F2I and F2H are within error of each other in abundance fitness: 0.097 ± 0.06 for the first, -0.048 ± 0.11 for the second.

Compared with F2M, F2E is lower in abundance fitness: -0.051 ± 0.094 for the first, -0.343 ± 0.1 for the second.

Compared with F2G, F2D is higher in abundance fitness: -0.335 ± 0.068 for the first, -0.086 ± 0.059 for the second.

F2K and F2A are within error of each other in abundance fitness: -0.108 ± 0.085 for the first, -0.261 ± 0.095 for the second.

F2R and F2T are within error of each other in abundance fitness: -0.118 ± 0.074 for the first, -0.15 ± 0.097 for the second.

F2V and L12W are within error of each other in abundance fitness: -0.282 ± 0.075 for the first, -0.298 ± 0.13 for the second.

L12G and L12P are within error of each other in abundance fitness: -0.038 ± 0.08 for the first, -0.149 ± 0.09 for the second.

L12Q and L12C are within error of each other in abundance fitness: -0.337 ± 0.19 for the first, -0.183 ± 0.11 for the second.

L12V and L12D are within error of each other in abundance fitness: -0.39 ± 0.097 for the first, -0.424 ± 0.17 for the second.

L12F and L12S are within error of each other in abundance fitness: -0.076 ± 0.09 for the first, -0.123 ± 0.084 for the second.

Going from L12M to L12T, the abundance fitness falls from 0.319 ± 0.12 to -0.25 ± 0.093.

Going from L12R to L12N, the abundance fitness falls from -0.178 ± 0.06 to -0.768 ± 0.4.

L12E and L12Y are within error of each other in abundance fitness: -0.19 ± 0.097 for the first, -0.145 ± 0.12 for the second.

First: L12I
Second: P3C
The abundance fitness of the first is lower: -0.63 ± 0.23 for the first, 0.291 ± 0.12 for the second.

Going from P3F to P3K, the abundance fitness falls from 0.483 ± 0.25 to -0.171 ± 0.18.

P3Y and P3H are within error of each other in abundance fitness: 0.394 ± 0.25 for the first, 0.17 ± 0.058 for the second.

First: P3D
Second: P3V
The abundance fitness of the first is higher: 0.677 ± 0.23 for the first, 0.064 ± 0.076 for the second.

P3I and P3E are within error of each other in abundance fitness: 0.209 ± 0.12 for the first, 0.357 ± 0.13 for the second.

P3S and P3T are within error of each other in abundance fitness: 0.099 ± 0.1 for the first, 0.06 ± 0.087 for the second.

P3M and P3Q are within error of each other in abundance fitness: 0.131 ± 0.12 for the first, 0.14 ± 0.12 for the second.

Compared with P3A, P3G is higher in abundance fitness: -0.047 ± 0.084 for the first, 0.116 ± 0.075 for the second.

Compared with P3R, P3N is higher in abundance fitness: -0.015 ± 0.078 for the first, 0.227 ± 0.087 for the second.

P3L and G1L are within error of each other in abundance fitness: 0.007 ± 0.069 for the first, -0.027 ± 0.11 for the second.

Compared with G1V, G1M is higher in abundance fitness: -0.007 ± 0.11 for the first, 0.477 ± 0.14 for the second.

G1R and G1W are within error of each other in abundance fitness: -0.187 ± 0.14 for the first, -0.46 ± 0.34 for the second.

G1E and G1S are within error of each other in abundance fitness: 0.003 ± 0.1 for the first, 0.218 ± 0.14 for the second.

Compared with G1D, Y11Q is lower in abundance fitness: 0.188 ± 0.13 for the first, -0.458 ± 0.41 for the second.

Y11W and Y11L are within error of each other in abundance fitness: -0.17 ± 0.14 for the first, -0.031 ± 0.071 for the second.

First: Y11K
Second: Y11I
The abundance fitness of the first is higher: -0.036 ± 0.12 for the first, -0.301 ± 0.097 for the second.

Going from Y11D to Y11E, the abundance fitness rises from -0.832 ± 0.11 to -0.256 ± 0.12.

Compared with Y11T, Y11P is lower in abundance fitness: -0.318 ± 0.15 for the first, -0.742 ± 0.2 for the second.

Y11C and Y11N are within error of each other in abundance fitness: -0.151 ± 0.074 for the first, -0.225 ± 0.073 for the second.

Y11R and Y11H are within error of each other in abundance fitness: -0.214 ± 0.055 for the first, 0 ± 0.18 for the second.

Compared with Y11F, Y11A is lower in abundance fitness: 0.227 ± 0.11 for the first, -0.267 ± 0.098 for the second.

Going from Y11V to Y11S, the abundance fitness rises from -0.25 ± 0.079 to 0.028 ± 0.083.

First: F16T
Second: F16A
The abundance fitness of the first is lower: -0.33 ± 0.11 for the first, -0.085 ± 0.08 for the second.

F16P and F16K are within error of each other in abundance fitness: -0.334 ± 0.11 for the first, -0.205 ± 0.12 for the second.

F16H and F16Y are within error of each other in abundance fitness: -0.148 ± 0.12 for the first, 0.024 ± 0.12 for the second.

Compared with F16N, F16C is higher in abundance fitness: -0.175 ± 0.096 for the first, 0.038 ± 0.11 for the second.

F16S and F16W are within error of each other in abundance fitness: -0.285 ± 0.094 for the first, -0.376 ± 0.12 for the second.

F16V and F16D are within error of each other in abundance fitness: -0.385 ± 0.064 for the first, -0.371 ± 0.1 for the second.

F16E and F16Q are within error of each other in abundance fitness: -0.408 ± 0.11 for the first, -0.243 ± 0.14 for the second.

F16G and F16L are within error of each other in abundance fitness: -0.333 ± 0.068 for the first, -0.487 ± 0.11 for the second.

T15S and T15N are within error of each other in abundance fitness: -0.181 ± 0.062 for the first, -0.336 ± 0.13 for the second.

T15Q and T15W are within error of each other in abundance fitness: -0.426 ± 0.25 for the first, -0.444 ± 0.12 for the second.

Compared with T15A, T15M is lower in abundance fitness: 0.105 ± 0.092 for the first, -0.146 ± 0.13 for the second.

Going from T15D to T15L, the abundance fitness rises from -0.622 ± 0.16 to -0.236 ± 0.083.

T15F and T15C are within error of each other in abundance fitness: -0.434 ± 0.15 for the first, -0.327 ± 0.2 for the second.

Compared with T15G, T15V is higher in abundance fitness: -0.607 ± 0.088 for the first, -0.425 ± 0.063 for the second.

Compared with T15I, T15E is lower in abundance fitness: -0.162 ± 0.069 for the first, -0.401 ± 0.062 for the second.

First: T15R
Second: T15P
The abundance fitness of the first is higher: -0.29 ± 0.076 for the first, -0.476 ± 0.071 for the second.

T15H and T15K are within error of each other in abundance fitness: -0.185 ± 0.12 for the first, -0.391 ± 0.14 for the second.

E8N and E8R are within error of each other in abundance fitness: -0.152 ± 0.22 for the first, -0.068 ± 0.085 for the second.

E8T and E8W are within error of each other in abundance fitness: -0.274 ± 0.19 for the first, -0.174 ± 0.1 for the second.

E8I and E8Q are within error of each other in abundance fitness: -0.063 ± 0.17 for the first, 0.086 ± 0.11 for the second.

Going from E8V to E8S, the abundance fitness falls from 0.039 ± 0.078 to -0.191 ± 0.1.

Compared with E8F, E8M is higher in abundance fitness: -0.096 ± 0.13 for the first, 0.197 ± 0.11 for the second.

E8Y and E8A are within error of each other in abundance fitness: -0.105 ± 0.16 for the first, 0.039 ± 0.066 for the second.

Compared with E8H, E8G is higher in abundance fitness: -0.765 ± 0.098 for the first, 0.007 ± 0.074 for the second.

First: E8P
Second: E8C
The abundance fitness of the first is lower: -0.303 ± 0.084 for the first, -0.107 ± 0.1 for the second.

E8D and K13E are within error of each other in abundance fitness: -0.452 ± 0.16 for the first, -0.565 ± 0.16 for the second.

K13D and K13G are within error of each other in abundance fitness: -0.603 ± 0.26 for the first, -0.333 ± 0.082 for the second.

First: K13P
Second: K13I
The abundance fitness of the first is lower: -0.507 ± 0.072 for the first, -0.257 ± 0.17 for the second.

K13C and K13W are within error of each other in abundance fitness: -0.153 ± 0.062 for the first, -0.131 ± 0.086 for the second.

First: K13M
Second: K13R
The abundance fitness of the first is higher: 0.04 ± 0.1 for the first, -0.231 ± 0.086 for the second.

Compared with K13N, K13L is higher in abundance fitness: -0.336 ± 0.16 for the first, -0.028 ± 0.067 for the second.

K13F and K13H are within error of each other in abundance fitness: -0.167 ± 0.12 for the first, 0.015 ± 0.087 for the second.

K13Q and K13A are within error of each other in abundance fitness: -0.247 ± 0.33 for the first, -0.223 ± 0.078 for the second.

K13T and K13S are within error of each other in abundance fitness: -0.105 ± 0.1 for the first, -0.116 ± 0.054 for the second.

First: K13V
Second: H4S
The abundance fitness of the first is higher: -0.106 ± 0.086 for the first, -0.92 ± 0.069 for the second.

H4G and H4E are within error of each other in abundance fitness: -0.847 ± 0.082 for the first, -0.628 ± 0.42 for the second.

H4W and H4L are within error of each other in abundance fitness: -1.04 ± 0.12 for the first, -1.07 ± 0.27 for the second.

H4Y gave an abundance fitness of -0.716 ± 0.3.
